Source: the supplement of paper PMC10201428
± gives the standard deviation of the averaged measurements.

B1: library; a variant is named by its letters at N, in order (parent)
chain: AATGTTGTTGATGCAACCATAAAGTGATATTTAATAATTATTTATAATCAGCAACTTAACCACAAAACAACCATATATTGATATNTCACAAAACAACCATAANTTGATATTTTTGTGAATCGAGTATTTCAGCAAAACTACTGCAGTAAGAA

Key:
[1] = variants of: B1; test: relative integration efficiency (T-LR orientation) vs wild-type transposon end (log2 (normalized fold change)); transposon end mutated: left end; higher = more efficient transposition; conditions: with VchCAST RNA-guided transposition machinery (E. coli BL21(DE3) host, lacZ target)
Summary of the method: (§1)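 Pools of 1549 left-end or 1849 right-end barcoded transposon variants were cloned into a pUC57 mini-transposon donor and co-transformed into E. coli BL21(DE3) with a T7-driven effector plasmid carrying a CRISPR array, tniQ-cas8-cas7-cas6 and tnsA-tnsB-tnsC. Plating used 0.1 mM IPTG at 37°C for 18 h, and input plasmids and genomic integration junctions were PCR-amplified for Illumina sequencing, with two biological output replicates and four reference barcodes. Relative integration efficiency is the log-transformed fold change of output over input barcode abundance, normalised to the reference barcodes.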

[2] = variants of: B1; test: relative integration efficiency (T-RL orientation) vs wild-type transposon end (log2 (normalized fold change)); transposon end mutated: left end; higher = more efficient transposition; conditions: with VchCAST RNA-guided transposition machinery (E. coli BL21(DE3) host, lacZ target)
Summary of the method: as §1

Variant	relative integration efficiency (log2) [1]	relative integration efficiency (log2) [2]
CG A47G T48G C52T A53G C55G T56C T57G A58C C60A A62G A66T A67T	-3.24 ± 2.1	-2.77 ± 0.78
CG A44G A46G T48G A50G C52A A53T C55A T56C T57A	-3.63 ± 2.8	-4.04 ± 1.1
CG A59C C60A C61A A62C	0.009 ± 0.11	0.0247 ± 0.0075
TG A70C T76A T86G	0.145 ± 0.46	-0.133 ± 0.18
CG A77T T78A	0.574 ± 0.48	0.149 ± 0.12
CG A40G T42G T43A A44G T45C A46G A47G T48A C49T G51A	-1.07 ± 0.8	-1.29 ± 0.32
CG A34C T35C A36G T38C A40G T42C A44G T45C A46C A53C A62G A65G A66C	-1.83 ± 0.73	-1.68 ± 0.71
CG A27C T28G A29C T30G	-2.34 ± 1.1	-2.43 ± 0.93
CG A65T A66T	0.447 ± 0.39	0.107 ± 0.0079
CG A29C T30G	-1.28 ± 1.4	-1.12 ± 0.53
CG A73T T74A A75T T76A	-1.64 ± 0.86	-0.919 ± 0.62
CG A58C	-0.0754 ± 0.25	-0.223 ± 0.17
CG A58T	-1.76 ± 1.7	-0.0803 ± 0.089
CG A58G	-0.0735 ± 0.46	-0.101 ± 0.063
CG A58C A59C	-0.146 ± 0.33	-0.0826 ± 0.066
CG A34C T35G A36C A37C	0.532 ± 0.072	0.175 ± 0.24
CG A36C A37C T38G T39G	-0.25 ± 0.0025	-0.22 ± 0.14
CG A83G	0.426 ± 0.3	0.00989 ± 0.23
CG A83T	-0.465 ± 0.53	-0.189 ± 0.057
CG A83C	0.152 ± 0.25	0.0829 ± 0.27
CG A23C G24T T25G G26T	-1.99 ± 0.63	-1.12 ± 0.49
CG A66C A67C	-0.404 ± 0.29	-0.0641 ± 0.033
CG A66G	-0.258 ± 0.65	0.0591 ± 0.047

Variant	relative integration efficiency (log2) [1]	relative integration efficiency (log2) [2]
CG A66T	0.195 ± 0.21	0.0703 ± 0.19
CG A66C	0.113 ± 0.11	-0.147 ± 0.047
CG A65C A66C	0.318 ± 0.48	0.0588 ± 0.077
CG A65G	0.108 ± 0.82	0.247 ± 0.21
CG A65C	0.328 ± 0.076	0.247 ± 0.051
CG A65T	0.125 ± 0.051	0.0807 ± 0.096
CG A36T A37T	0.375 ± 0.21	0.0996 ± 0.091
CG A34C T35G T39C T41A T45A G51T C52A A53G A54G C60T A62G C63A	0.531 ± 0.51	-0.0678 ± 0.088
CG A34T T35A	0.192 ± 0.25	0.209 ± 0.033
CG A73C T74G A75C T76G	-1.86 ± 0.67	-2.23 ± 0.73
CG A64C A65C	-0.354 ± 0.13	-0.201 ± 0.15
CG A37C T38G T39G A40C	0.21 ± 0.43	-0.0337 ± 0.1
CG A67C	-0.106 ± 0.44	-0.129 ± 0.051
CG A67T	-0.588 ± 0.78	-0.202 ± 0.27
CG A67G	-0.325 ± 0.26	-0.269 ± 0.083
CG A58T A59T	0.226 ± 0.49	-0.00421 ± 0.16
CG A54C C55A T56G T57G	-2.12 ± 1.2	-1.68 ± 0.8
CG A77C T78G	0.461 ± 0.32	0.644 ± 0.21
CG A44T T45A	0.734 ± 0.13	0.214 ± 0.11
CG A65T A66T A67T C68G	-0.641 ± 0.54	-0.247 ± 0.37
CG A67C C68A	-0.165 ± 0.81	-0.108 ± 0.25
CG A69T A70T C71G C72G	-1.93 ± 1.4	-1.77 ± 0.77
CG A46T A47T T48A C49G	0.192 ± 0.37	0.00752 ± 0.28

Variant	relative integration efficiency (log2) [1]	relative integration efficiency (log2) [2]
CG A29T T30A	0.489 ± 0.49	0.23 ± 0.29
CG A50T G51C	-1.59 ± 0.97	-0.729 ± 0.46
TG A22T G24T T31C A33C A70C T76A T86G	-0.285 ± 0.49	-0.627 ± 0.19
CG A67T C68G A69T A70T	-1.78 ± 0.54	-1.55 ± 0.73
CG A29C A83C A109C	-1.94 ± 0.43	-1.65 ± 0.57
CG A66T A67T C68G A69T	-1 ± 0.9	-0.447 ± 0.35
CG A23T G24C T25A G26C	-2.69 ± 1.5	-2.6 ± 0.78
CG A75T T76A A77T T78A	-0.0527 ± 0.32	-0.453 ± 0.37
CG A33T C87G T113A	0.02216 ± 0.00015	-0.157 ± 0.2
CG A75C T76G A77C T78G	-2.25 ± 1.6	-1.8 ± 0.61
CG A62T	1.22 ± 0.39	1.17 ± 0.29
CG A62C	0.284 ± 0.025	-0.0795 ± 0.022
CG A62G	0.446 ± 0.39	0.318 ± 0.17
CG A33T A34T	0.663 ± 0.25	0.125 ± 0.061
CG A47T T48A	0.0225 ± 0.3	0.341 ± 0.033
CG A50C G51T C52A A53C	-0.0404 ± 0.5	-0.0487 ± 0.27
CG A66C C68A A69C A70C C71A C72T A77T T78G T79A G80T A83C T86A C87A	-2.717 ± 0.015	-1.87 ± 0.77
CG A53C A54C C55A T56G	-0.0934 ± 0.06	-0.592 ± 0.35
CG A27T T28A	-0.61 ± 0.9	-0.441 ± 0.66
CG A69T A70T	-0.797 ± 0.57	-0.395 ± 0.4
CG A44T	0.138 ± 0.09	0.0943 ± 0.032
CG A44C	-0.0239 ± 0.24	0.147 ± 0.068
CG A44G	0.0745 ± 0.29	0.155 ± 0.065

Variant	relative integration efficiency (log2) [1]	relative integration efficiency (log2) [2]
CG A70T C71G C72G A73T	-2.15 ± 0.26	-2.22 ± 0.88
CG A36T A37T T38A T39A	0.111 ± 0.38	0.0771 ± 0.077
CG A46G A47G C49G A50T G51C C52T A53C A54G A58C C60G	-3.701 ± 0.037	-3.69 ± 1.2
CG A44C T45G	0.0152 ± 0.65	-0.0735 ± 0.14
TG A23G G24T A33T T76A T78A T84A C87A	0.325 ± 0.22	0.0428 ± 0.34
CG A62T C63G	-0.0229 ± 0.67	0.275 ± 0.072
CG A36G T42C A62G A65G A66C	-0.297 ± 0.32	-0.575 ± 0.29
CG A34T A36G A37T T38G T39A A40G T41C T42G T43G T48C C49A	-2.77 ± 0.75	-2.86 ± 0.81
AG A83C T84G T86G	-1.31 ± 0.49	-0.668 ± 0.067
CG A33T	0.232 ± 0.46	0.135 ± 0.21
CG A33G	0.00747 ± 0.0001	0.292 ± 0.074
CG A33C	0.29 ± 0.052	0.172 ± 0.082
CG A22T T76A A102T	0.271 ± 0.39	0.269 ± 0.11
CG A66C A67C C68A A69C	-0.943 ± 0.25	-0.685 ± 0.37
CG A40T	0.577 ± 0.12	0.279 ± 0.021
CG A40C	-0.351 ± 0.61	-0.0674 ± 0.033
CG A40G	0.0123 ± 0.78	-0.273 ± 0.0094
CG A53T A54T	-0.0995 ± 0.047	-0.0854 ± 0.17
CG A53T A54T C55G T56A	-0.3673 ± 0.0015	-0.413 ± 0.41
CG A83T T84A	-0.352 ± 0.65	-0.194 ± 0.16
CG A47C T48G C49A A50C	-1.93 ± 0.6	-1.5 ± 0.48
CG A73C T74G	-2.3 ± 0.72	-2.37 ± 0.86
CG A70C C71A C72A A73C	-2 ± 1.7	-2.13 ± 0.84

Variant	relative integration efficiency (log2) [1]	relative integration efficiency (log2) [2]
CG A23T G24C	0.111 ± 0.07	-0.0468 ± 0.13
CG A34C T35G	0.139 ± 0.22	-0.109 ± 0.025
CG A73T T74A	-0.734 ± 0.56	-0.97 ± 0.4
CG A62C C63A	-0.193 ± 0.12	0.182 ± 0.065
CG A67T C68G	-0.364 ± 0.41	-0.543 ± 0.47
CG A40T T41A T42A T43A	0.256 ± 0.21	0.0403 ± 0.12
CG A75T T76A	-0.104 ± 0.2	-0.129 ± 0.13
CG A59T C60G C61G A62T	0.314 ± 0.15	0.00645 ± 0.092
TG A23G G24T A33T A70C T76A T86G	-0.0695 ± 0.1	-0.149 ± 0.11
CG A62C C63A A64C A65C	-0.604 ± 0.18	-0.324 ± 0.044
CG A77C T78G T79G G80T	-2.28 ± 1.1	-1.57 ± 0.49
CG A33C A34C	-0.259 ± 0.42	0.167 ± 0.0038
CG A53C A54C	0.297 ± 0.47	0.0858 ± 0.13
CG A37T T38A T39A A40T	0.186 ± 0.28	0.137 ± 0.049
CG A64C A65C A66C A67C	-0.691 ± 0.34	-0.323 ± 0.18
CG A34C T35C A36G T38C A40G T42C A44G A62G A65G A66C	-0.6091 ± 0.0048	-0.635 ± 0.3
CG A44T T45A A46T A47T	0.462 ± 0.079	-0.0681 ± 0.078
CG A81T T82A A83T T84A	-0.679 ± 1.2	-0.753 ± 0.74
CG A54C C55A	0.298 ± 0.28	-0.0734 ± 0.078
CG A54T C55G	0.202 ± 0.2	-0.316 ± 0.29
CG A77C T86G	0.141 ± 0.0087	-0.217 ± 0.029
CG A50T	-0.977 ± 0.48	-0.161 ± 0.19
CG A50G	-0.586 ± 0.44	-0.168 ± 0.005
